According to US20230192819A1 (TWIST BIOSCIENCE, published 2023):
Where “and” joins values, the source holds several entries; their conditions need not be identical. Identical values can stand only once. Like-named read-outs stand apart in the source and are kept apart here.

B1: Antibody 1-1 (Fc fusion)
chain: EVQLVESGGGLVQPGGSLRLSCAASGSIGSINAMGWFRQAPGKEREWVAGISNGGTTNYADSVKGRFTISADNSKNTAYLQMNSLKPEDTAVYYCAADGVPEYSDYASGPVWGQGTLVTVSS
B2: Antibody 1-14 (Fc fusion)
chain: EVQLVESGGGLVQPGGSLRLSCAASGFTPDDYAMGWFRQAPGKEREFVAAINWSGVTTYHYYADSVKGRFTISADNSKNTAYLQMNSLKPEDTAVYYCASDESDAANWGQGTLVTVSS
B3: Antibody 1-15 (Fc fusion)
chain: EVQLVESGGGLVQPGGSLRLSCAASGGIFSDMFMGWFRQAPGKEREFVATIDWSGDTAFYADSVKGRFTISADNSKNTAYLQMNSLKPEDTAVYYCAVDLSGDAVYDWGQGTLVTVSS
B4: Antibody 1-19 (Fc fusion)
chain: EVQLVESGGGLVQPGGSLRLSCAASGFTFSDYAMGWFRQAPGKEREVVARIYWSSANTYYADSVKGRFTISADNSKNTAYLQMNSLKPEDTAVYYCATYGYDSGRYYSWGQGTLVTVSS
B5: Antibody 1-7 (Fc fusion)
chain: EVQLVESGGGLVQPGGSLRLSCAASGGTFSSIGMGWFRQAPGKEREFVAAISWDGGATAYADSVKGRFTISADNSKNTVYLQMNSLKPEDTAVYYCAKEDVGKPFDWGQGTLVTVSS
B6: Antibody 1-10 (Fc fusion)
chain: EVQLVESGGGLVQPGSSLRLSCAASGGTFSSIGMGWFRQAPGKEREFVAAISWDGGATAYADSVKGRFTISADNSKNTAYLQMNSLKPEDTAVYYCAKEDVGKPFDWGQGTLVTVSS
B7: Antibody 1-8 (Fc fusion)
chain: EVQLVESGGGLVQPGGSLRLSCAASGRTLSRYTMGWFRQAPGKEREFVASITSGGTTNYADSVKGRFTISADNSKNTAYLQMNSLKPEDTAVYYCAKEDVGKPFDWGQGTLVTVSS

What was measured:
[1] = target: California Variant W152C_L452R_D614G
[2] = target: T1, Acro S1 spike protein (SARS-CoV-2) (SARS-CoV-2, UniProt P0DTC2 16-685)
[3] = target: T2, S1 variant B.1.1.7: UK (Acro) spike protein (SARS-CoV-2, UniProt P0DTC2 16-1213)
[4] = target: T3, C52Hg Brazilian variant (Acro) spike protein (SARS-CoV-2, UniProt P0DTC2 16-1213)
[5] = target: Delta variant (Acro) spike protein (SARS-CoV-2, UniProt P0DTC2 16-1213)
[6] = target: T4, C52Hk S. African variant (Acro) spike protein (SARS-CoV-2, UniProt P0DTC2 16-1213)
[7] = target: T1, Acro S1 spike protein (SARS-CoV-2); assay: SPR (Carterra LSA); […]; 1:1 model; […]
[8] = target: T2, S1 variant B.1.1.7: UK (Acro) spike …; assay: SPR (Carterra LSA); […]; 1:1 model; […]
[9] = target: T4, C52Hk S. African variant (Acro) spike …; assay: SPR (Carterra LSA); […]; 1:1 model; […]
[10] = target: T3, C52Hg Brazilian variant (Acro) spike …; assay: SPR (Carterra LSA); […]; 1:1 model; […]
[11] = target: T1, Acro S1 spike protein (SARS-CoV-2); assay: SPR (Carterra LSA); antibody on chip, spike protein as analyte; summary table
[12] = target: T2, S1 variant B.1.1.7: UK (Acro) spike …; assay: as above
[13] = target: T4, C52Hk S. African variant (Acro) spike …; assay: as above
[14] = target: T3, C52Hg Brazilian variant (Acro) spike …; assay: as above
[15] = target: T1, Acro S1 spike protein (SARS-CoV-2); assay: SPR (Carterra LSA)
[16] = target: T2, S1 variant B.1.1.7: UK (Acro) spike …; assay: SPR (Carterra LSA)
[17] = target: T4, C52Hk S. African variant (Acro) spike …; assay: SPR (Carterra LSA)
[18] = target: T3, C52Hg Brazilian variant (Acro) spike …; assay: SPR (Carterra LSA)

Row | Binder | IC50 [1] | Kd [2] | koff [2] | kon [2] | Kd [3] | koff [3] | koff [4] | Kd [5] | Kd [8] | koff [8] | kon [8] | Kd [9] | koff [9] | kon [9] | Kd [10] | koff [10] | kon [10] | Kd [12] | Kd [13] | Kd [14] | other results
1 | B1 | 4.4 nM | 2.8 nM and 4 nM | 0.000378 s⁻¹ and 0.000446 s⁻¹ | 135000 M⁻¹ s⁻¹ and 112000 M⁻¹ s⁻¹ | 0.82 nM and 2.06 nM | 0.00024 s⁻¹ and 0.000189 s⁻¹ | 0.000724 s⁻¹ and 0.000956 s⁻¹ | 2.31 nM and 2.22 nM | 0.867 nM | 0.00052 s⁻¹ | 600000 M⁻¹ s⁻¹ | 1.07 nM | 0.00058 s⁻¹ | 540000 M⁻¹ s⁻¹ | 0.691 nM | 0.00038 s⁻¹ | 550000 M⁻¹ s⁻¹ | 0.867 nM | 1.07 nM | 0.691 nM | Kd [4]: 5.57 nM and 9.51 nM; kon [4]: 130000 M⁻¹ s⁻¹ and 100000 M⁻¹ s⁻¹; koff [5]: 0.000433 s⁻¹ and 0.000358 s⁻¹; kon [5]: 188000 M⁻¹ s⁻¹ and 161000 M⁻¹ s⁻¹; Kd [6]: 6.2 nM; koff [6]: 0.000806 s⁻¹; kon [6]: 130000 M⁻¹ s⁻¹; Kd [7]: 0.677 nM; koff [7]: 0.00042 s⁻¹; kon [7]: 620000 M⁻¹ s⁻¹; Kd [11]: 0.677 nM
2 | B2 | – | – | – | – | – | – | – | – | – | – | – | – | – | – | – | – | – | – | – | – | binding result [15]: no binding; binding result [16]: no binding; binding result [17]: no binding; binding result [18]: no binding
3 | B3 | 66.7 nM | 5.43 nM and 10.9 nM | 0.000339 s⁻¹ and 0.000547 s⁻¹ | 62400 M⁻¹ s⁻¹ and 50200 M⁻¹ s⁻¹ | 0.708 nM and 0.82 nM | 5.5e-05 s⁻¹ | 1e-05 s⁻¹ | – | 0.828 nM | 0.00024 s⁻¹ | 290000 M⁻¹ s⁻¹ | 1.04 nM | 0.00028 s⁻¹ | 270000 M⁻¹ s⁻¹ | 1.04 nM | 0.00028 s⁻¹ | 270000 M⁻¹ s⁻¹ | 0.828 nM | 1.4 nM | 1.04 nM | kon [3]: 77700 M⁻¹ s⁻¹; Kd [7]: 10.4 nM; koff [7]: 0.00094 s⁻¹; kon [7]: 90000 M⁻¹ s⁻¹; Kd [11]: 10.4 nM
4 | B4 | – | – | – | – | – | – | – | – | – | – | – | – | – | – | – | – | – | – | – | – | binding result [15]: no binding; binding result [16]: no binding; binding result [17]: no binding; binding result [18]: no binding
5 | B5 | 0.111 nM | – | – | 130000 M⁻¹ s⁻¹ and 161000 M⁻¹ s⁻¹ | – | – | 0.00081 s⁻¹ and 0.00121 s⁻¹ | 0.114 nM and 0.0579 nM | 1.11 nM | 0.0004 s⁻¹ | 360000 M⁻¹ s⁻¹ | 1.36 nM | 0.00049 s⁻¹ | 360000 M⁻¹ s⁻¹ | 0.962 nM | 0.00025 s⁻¹ | 260000 M⁻¹ s⁻¹ | 1.11 nM | 1.36 nM | 0.962 nM | kon [3]: 144000 M⁻¹ s⁻¹ and 188000 M⁻¹ s⁻¹; Kd [4]: 8.53 nM and 12.5 nM; kon [4]: 95000 M⁻¹ s⁻¹ and 96200 M⁻¹ s⁻¹; koff [5]: 1.87e-05 s⁻¹ and 1e-05 s⁻¹; kon [5]: 164000 M⁻¹ s⁻¹ and 173000 M⁻¹ s⁻¹; Kd [6]: 8.2 nM and 7.9 nM; koff [6]: 0.000459 s⁻¹ and 0.000521 s⁻¹; kon [6]: 56000 M⁻¹ s⁻¹ and 66000 M⁻¹ s⁻¹; Kd [7]: 1.31 nM; koff [7]: 0.00047 s⁻¹; kon [7]: 360000 M⁻¹ s⁻¹; Kd [11]: 1.31 nM
6 | B6 | 0.13 nM | 2.6 nM | 0.00053 s⁻¹ and 0.000728 s⁻¹ | 280000 M⁻¹ s⁻¹ | 0.33 nM and 0.27 nM | 2.54e-05 s⁻¹ and 2.32e-05 s⁻¹ | – | 7.43 nM and 5.43 nM | 0.481 nM | 0.00013 s⁻¹ | 270000 M⁻¹ s⁻¹ | 13.9 nM | 0.00089 s⁻¹ | 64000 M⁻¹ s⁻¹ | 127 nM | 0.00081 s⁻¹ | 6400 M⁻¹ s⁻¹ | 0.481 nM | 13.9 nM | 127 nM | kon [3]: 77000 M⁻¹ s⁻¹ and 86000 M⁻¹ s⁻¹; koff [5]: 0.000706 s⁻¹ and 0.000516 s⁻¹; kon [5]: 95000 M⁻¹ s⁻¹; Kd [7]: 1.96 nM; koff [7]: 0.00053 s⁻¹; kon [7]: 270000 M⁻¹ s⁻¹; Kd [11]: 1.95 nM
7 | B7 | 2.72 nM | 2.22 nM and 4.13 nM | 0.000412 s⁻¹ and 0.000662 s⁻¹ | 186000 M⁻¹ s⁻¹ and 160000 M⁻¹ s⁻¹ | 3.2 nM | 0.000572 s⁻¹ | 0.000158 s⁻¹ and 0.00011 s⁻¹ | 2.39 nM and 3.18 nM | 2.26 nM | 0.0007 s⁻¹ | 310000 M⁻¹ s⁻¹ | 1 nM | 0.00057 s⁻¹ | 570000 M⁻¹ s⁻¹ | 0.321 nM | 0.00017 s⁻¹ | 530000 M⁻¹ s⁻¹ | 2.26 nM | 1 nM | 0.321 nM | kon [3]: 179000 M⁻¹ s⁻¹; Kd [4]: 2.53 nM and 1.9 nM; kon [4]: 62400 M⁻¹ s⁻¹ and 58000 M⁻¹ s⁻¹; koff [5]: 0.000409 s⁻¹ and 0.000318 s⁻¹; kon [5]: 171000 M⁻¹ s⁻¹ and 100000 M⁻¹ s⁻¹
